Measurements published in US20240043506A1 (GARVAN INSTITUTE OF MEDICAL RESEARCH, published 2024).
Changes are numbered by the printed parent chain. In names and notes the source's numbering stands.

B1: C12K-D12 (antibody, V domains shown)
VH: EVQLLESGGGLVQPGGSLRLSCAASGFRISDEDMGWVRQAPGKGLEWVSYIDNAGASTYYADSVKGRFTISRDNSKNTLYLQMNSLRAEDTAVYYCAKSLGPNPEFDYWGQGTLVTVSS
VL: DIQMTQSPSSLSASVGDRVTITCRASQSISSYLNWYQQKPGKAPKLLIYYASNLQSGVPSRFSGSGSGTDFTLTISSLQPEDFATYYCQQGLGMPITFGQGTKVEIK
B2: G1K-C4 (antibody, V domains shown)
VH: EVQLLESGGGLVQPGGSLRLSCAASGFRFDYEDMGWVRQAPGKGLEWVSSIDSHGASTYYADSVKGRFTISRDNSKNTLYLQMNSLRAEDTAVYYCAKYSHSVSYGPFDYWGQGTLVTVSS
VL: B1 VL with S28Y, S31Y, Y32D, Y50S, N53S, G91T, L92N, G93T, M94Y, I96Q
B3: C12K-G10 (antibody, V domains shown)
VH: B1 VH with G101N, P102S, N103L, P104G, E105V
VL: B1 VL with S30Y, S31D, N53A

Columns and labels:
[1] = molecular target: T1, SARS-CoV-2 S protein RBD (residues 319-541 of the S protein), soluble, with C-terminal Avitag and His tag (SARS-CoV-2, UniProt P0DTC2 319-541); assay: biolayer interferometry (BLItz), […]
[2] = molecular target: T1, SARS-CoV-2 S protein RBD (residues …); assay: biolayer interferometry (BLItz), […], global fit

| Binder | Kd [1] | Kd [2] |
| --- | --- | --- |
| B1 | 1 nM |  |
| B2 |  | 59 nM |
| B3 | 0.788 nM |  |
